Laboratory results taken from paper PMC12043514 (Nature, 2024).

Assays:
cryo-EM structure = target: the molecule itself; test: cryo-EM structure
[1] = target: SV40 large tumour antigen (LTag) helicase hexamer (Simian virus 40, UniProt P03070 1-708); test: cryo-EM

Binder | stoichiometry N (cryo-EM structure) | binding result [1]
simian virus 40 large tumour antigen (LTag) helicase (enzyme) MDKVLNREESLQLMDLLGLERSAWGNIPLMRKAYLKKCKEFHPDKGGDEEKMKKMNTLYKKMEDGVKYAHQPDFGGFWDATEIPTYGTDEWEQWWNAFNEENLFCSEEMPSSDDEATADSQHSTPPKKKRKVEDPKDFPSELLSFLSHAVFSNRTLACFAIYTTKEKAALLYKKIMEKYSVTFISRHNSYNHNILFFLTPHRHRVSAINNYAQKLCTFSFLICKGVNKEYLMYSALTRDPFSVIEESLPGGLKEHDFNPEEAEETKQVSWKLVTEYAMETKCDDVLLLLGMYLEFQYSFEMCLKCIKKEQPSHYKYHEKHYANAAIFADSKNQKTICQQAVDTVLAKKRVDSLQLTREQMLTNRFNDLLDRMDIMFGSTGSADIEEWMAGVAWLHCLLPKMDSVVYDFLKCMVYNIPKKRYWLFKGPIDSGKTTLAAALLELCGGKALNVNLPLDRLNFELGVAIDQFLVVFEDVKGTGGESRDLPSGQGINNLDNLRDYLDGSVKVNLEKKHLNKRTQIFPPGIVTMNEYSVPKTLQARFVKQIDFRPKDYLKHCLERSEFLLEKRIIQSGIALLLMLIWYRPVAEFAQSIQSRIVEWKERLDKEFSLSVYQKMKFNVAMGIGVLDWLRNSDDDDEDSQENADKNEDGGEKNMEDSGHETGIDSQSQGSFQAPQSSQSVHDHNQPYHICRGFTCFKKPPTPPPEPET | 6 | –
gap DNA substrate without free 3' ssDNA tail (mixed, 3' terminal dideoxy-C ([23ddC]) on strand 1) DNA 1: AGCTATGACCATGATTACGAATTGC DNA 2: TTTTTCGGAGTCGTTTCGACTCCGATTTTTTTTTTTTTTTTTTTTTTTTTTTTTTTTTTTTTTTTTTTTTGCAATTCGTAATCATGGTCATAGCT | – | no binding
